Here are results for 1 molecule from PMC10926643 (2024).

This assay concerns the target T1, recombinant FGF12 fused with the His-tag (UniProt P61328 1-243).
T1 chain: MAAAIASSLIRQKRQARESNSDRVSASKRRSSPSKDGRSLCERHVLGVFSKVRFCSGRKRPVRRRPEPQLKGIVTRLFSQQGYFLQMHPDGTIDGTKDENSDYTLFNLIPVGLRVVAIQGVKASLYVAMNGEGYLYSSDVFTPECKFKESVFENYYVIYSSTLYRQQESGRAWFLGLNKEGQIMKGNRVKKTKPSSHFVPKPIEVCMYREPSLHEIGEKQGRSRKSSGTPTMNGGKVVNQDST
The assay can be described thus: SPR.

B1: recombinant galectin-8 (natural protein)
chain: MMLSLNNLQNIIYNPVIPFVGTIPDQLDPGTLIVIRGHVPSDADRFQVDLQNGSSMKPRADVAFHFNPRFKRAGCIVCNTLINEKWGREEITYDTPFKREKSFEIVIMVLKDKFQVAVNGKHTLLYGHRIGPEKIDTLGIYGKVNIHSIGFSFSSDLQSTQASSLELTEISRENVPKSGTPQLRLPFAARLNTPMGPGRTVVVKGEVNANAKSFNVDLLAGKSKDIALHLNPRLNIKAFVRNSFLQESWGEEERNITSFPFSPGMYFEMIIYCDVREFKVAVNGVHSLEYKHRFKELSSIDTLEINGDIHLLEVRSW
B1: the Kd was determined as 581 nM.
